From US7732133B2, “Screening methods for biologically active ligands” (Chugai Seiyaku Kabushiki Kaisha, priority 2000, dated 2010)

Target: T1, chimeric LIF receptor (human LIF receptor and human gp130 / mouse G-CSF receptor) in Ba/F3 cell line LIG (Homo sapiens, UniProt P40189+P42702)
T1 construct: from the 1st to the 833rd amino acid residues; expressed in transfected cells; host or cells: mouse Ba/F3 cells co-transfected with pCV-cLIFR and pCV-cgp130, clone LIG#47 = LIG
T1 sequence (P42702 45-833): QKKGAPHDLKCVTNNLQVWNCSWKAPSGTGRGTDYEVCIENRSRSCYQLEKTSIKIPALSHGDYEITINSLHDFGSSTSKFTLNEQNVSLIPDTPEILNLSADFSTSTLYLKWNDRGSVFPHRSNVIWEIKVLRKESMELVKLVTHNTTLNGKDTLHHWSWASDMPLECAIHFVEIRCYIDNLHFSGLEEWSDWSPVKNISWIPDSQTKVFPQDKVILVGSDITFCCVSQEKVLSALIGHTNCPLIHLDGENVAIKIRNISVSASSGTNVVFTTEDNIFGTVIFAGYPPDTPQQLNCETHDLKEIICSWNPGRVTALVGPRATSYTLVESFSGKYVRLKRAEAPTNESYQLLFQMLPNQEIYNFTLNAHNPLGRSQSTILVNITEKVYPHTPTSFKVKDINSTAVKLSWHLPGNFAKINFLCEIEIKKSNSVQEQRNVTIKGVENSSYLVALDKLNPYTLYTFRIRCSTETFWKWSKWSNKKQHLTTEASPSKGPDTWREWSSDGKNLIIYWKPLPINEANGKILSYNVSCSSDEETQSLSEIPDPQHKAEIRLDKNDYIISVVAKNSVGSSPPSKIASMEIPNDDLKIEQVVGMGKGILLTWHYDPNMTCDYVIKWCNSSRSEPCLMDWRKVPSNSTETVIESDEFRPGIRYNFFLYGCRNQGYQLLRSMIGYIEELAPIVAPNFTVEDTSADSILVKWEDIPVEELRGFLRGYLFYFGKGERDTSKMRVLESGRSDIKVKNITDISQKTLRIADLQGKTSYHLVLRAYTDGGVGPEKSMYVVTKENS
T1 sequence (P40189 23-619): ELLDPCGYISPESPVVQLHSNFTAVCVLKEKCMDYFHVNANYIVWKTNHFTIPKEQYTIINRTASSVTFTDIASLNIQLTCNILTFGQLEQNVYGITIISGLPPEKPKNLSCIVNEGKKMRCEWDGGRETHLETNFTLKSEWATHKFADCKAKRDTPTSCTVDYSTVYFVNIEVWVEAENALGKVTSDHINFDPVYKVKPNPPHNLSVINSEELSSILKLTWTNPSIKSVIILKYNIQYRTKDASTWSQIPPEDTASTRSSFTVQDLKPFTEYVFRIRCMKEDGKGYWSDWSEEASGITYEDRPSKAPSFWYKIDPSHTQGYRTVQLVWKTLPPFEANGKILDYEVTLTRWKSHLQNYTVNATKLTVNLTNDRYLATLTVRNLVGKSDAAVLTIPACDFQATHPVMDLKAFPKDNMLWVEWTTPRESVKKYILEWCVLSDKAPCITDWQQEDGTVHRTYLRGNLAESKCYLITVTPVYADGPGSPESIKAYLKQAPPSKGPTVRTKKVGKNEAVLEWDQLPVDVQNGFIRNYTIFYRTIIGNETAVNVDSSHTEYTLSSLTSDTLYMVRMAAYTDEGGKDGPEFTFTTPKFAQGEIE
T1 sequence (P40223 627-837 partner limits assumed): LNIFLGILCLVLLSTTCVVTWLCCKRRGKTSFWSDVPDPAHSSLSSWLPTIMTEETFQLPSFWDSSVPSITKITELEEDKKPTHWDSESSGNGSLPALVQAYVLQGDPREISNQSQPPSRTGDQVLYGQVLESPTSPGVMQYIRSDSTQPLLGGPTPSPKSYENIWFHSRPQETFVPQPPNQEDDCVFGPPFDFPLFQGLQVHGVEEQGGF
Assay: Growth response of chimeric LIF receptor-expressing Ba/F3 cell line LIG (WST-8)
Assay type: cell-based
Settings: 72 hours culture, WST-8 absorbance
Source text: Chimeric receptor DNAs were constructed by linking cDNA fragments encoding human LIF receptor (from the 1st to the 833rd amino acid residues; Gearing, D P. et al. […] EMBO J., 10, 2839-2848) and human gp130 (from the 1st to the 619th amino acid residues; Hibi, M. et al. (1990) Cell, 63, 1149-1157) with the transmembrane and intracellular domains (from the 602nd to the 813th amino acid residues; Fukunaga, R. et al. (1990) Cell 61, 341-350) of mouse G-CSF receptor, respectively. These constructs were inserted downstream of the HEF1α promoter of the mammalian expression vector pCV to construct chimeric receptors expression vectors, pCV-cLIFR and pCV-cgp130, respectively. pCV-cLIFR and pCV-cgp130 were linearized with Pvu I (Takara Shuzo), respectively, extracted with phenol and chloroform, and purified by ethanol precipitation. […]
The cells were washed twice with Media A, and were suspended in Media A to give a cell density of 5×10^4 cells/mL. […] After the culture, 10 μL/well WST-8 reagent (Cell Count Reagent SF; Nacalai Tesque) was added, and pre-reaction absorbance at a measurement wavelength of 450 nm and a control wavelength of 655 nm was measured using microplate reader (Model 3550, Bio Rad). The plate was incubated for two hours in a CO2 incubator (CO2 concentration, 5%), and post-reaction absorbance was measured as above. […]

B1: human CNTF: human ciliary neurotrophic factor (Genzyme) (protein, UniProt P26441 1-200, looked up)
Ciliary neurotrophic factor: MAFTEHSPLTPHRRDLCSRSIWLARKIRSDLTALTESYVKHQGLNKNINLDSADGMPVASTDQWSELTEAERLQENLQAYRTFHVLLARLLEDQQVHFTPTEGDFHQAIHTLLLQVAAFAYQIEELMILLEYKIPRNEADGMPINVGDGGLFEKKLWGLKVLQELSQWTVRSIHDLRFISSHQTGIPARGSHYIANNKKM
concentration at which an evident growth reaction was observed: > 10 ng/mL
